In publication PMC4460036 one finds Kd data, which are given here for 2 substances.

The assay concerns the target Fibrillar-type I Horm collagen from equine tendon (equine). As to the kind of experiment: not stated; apparent constants (KDapp) of recombinant soluble GPVI for collagen; method and conditions not told.

On to “GPVI-Fc (extracellular domain of human GPVI fused to the Fc domain of human Igs) (from UniProt Q9HCN6 21-267) (Fc fusion)”, for which the Kd was 5 nM.
As for “GPVI-His (extracellular domain of human GPVI fused to a poly-His tag) (from UniProt Q9HCN6 21-267) (domain or fragment)”, the Kd came out at 270 nM.
